# Starred links: 1 amine or outer side, 2 acyl side, 3 side chain; linkers in the order of their positions; H or OH if unused. Positions of bridges follow the written chain, without caps; N, C: chain ends. Non-standard residues stand in square brackets, D forms with d. Chains are numbered I, II in the order given. No end group written: not given here. *: point of attachment. TATA = O=C(CC[*:1])N1CN(C(=O)CC[*:2])CN(C(=O)CC[*:3])C1; 1Nal = N[C@@H](Cc1cccc2ccccc12)C(=O)O; Hyp = O=C(O)[C@@H]1C[C@@H](O)CN1; hArg = N=C(N)NCCCC[C@H](N)C(=O)O; Pent4ynoyl = C#CCCC(=O)*
# Legend:
# Assay in all cases: cell-based or functional assay
# [1] = target: T1, OX40 on OX40 Jurkat reporter cells (Promega CS197704) (UniProt P43489 29-277, limits assumed)
# T1 sequence (looked up): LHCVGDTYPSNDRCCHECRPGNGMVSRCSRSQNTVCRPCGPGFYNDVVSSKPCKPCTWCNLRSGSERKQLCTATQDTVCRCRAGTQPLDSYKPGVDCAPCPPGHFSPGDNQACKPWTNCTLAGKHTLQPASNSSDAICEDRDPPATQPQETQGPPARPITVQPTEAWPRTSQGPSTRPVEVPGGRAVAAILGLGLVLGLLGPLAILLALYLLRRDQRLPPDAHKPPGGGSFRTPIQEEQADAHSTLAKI
# [2] = target: T1, OX40 on OX40 Jurkat reporter cells …; remark: listed apart in the source
# [3] = target: T1, OX40 on OX40 Jurkat reporter cells …; remark: listed apart in the source
binder,measurement,setting,value
"BCY12967, Nectin-4:OX40 heterotandem of a trifunctional PEG3 derivative of BCY8116 and BCY11607 (linker I:2-I:7-I:14, II:1-II:5-II:15 via TATA; not fully specified (bridges); also: two copies of chain 1 (BCY11607) clicked via Lys(Pya) to the trifunctional PEG3 linker) peptide 1: ACLYSPCWHPLNDCAK(Pent4ynoyl) peptide 2: CP[1Nal][dD]CM[hArg]DWSTP[Hyp]WC","EC50 (nM), Promega OX40 cell-activity assay in co-culture with Nectin-4 positive 4T1-D02 tumor cells",[1],0.83 nM
"BCY12141, Nectin-4:OX40 heterotandem of BCY11607 [A-(SEQ ID NO: 6)-A-K(Pya)] and BCY8116-PEG12-N3 (linker I:2-I:7-I:14, II:1-II:5-II:15 via TATA; not fully specified (bridges); also: PEG12 linker attached to chain 2, place not given here) peptide 1: ACLYSPCWHPLNDCAK(Pent4ynoyl) peptide 2: CP[1Nal][dD]CM[hArg]DWSTP[Hyp]WC","EC50 (nM), Promega OX40 cell-activity assay in co-culture with Nectin-4 positive 4T1-D02 tumor cells",[1],0.59 nM
ACLYSPCWHPLNDCAK (linker 2-7-14 via TATA; not fully specified (residue 16); also: tetramer: four BCY11607 monomers clicked via S1A to central hinge A (TET)),agonism in the Promega OX40 cell-activity assay relative to BCY10549 bound to streptavidin,[2],~10 fold
same,"EC50 (nM), Promega OX40 cell-activity assay (NF-κB luciferase in OX40 Jurkat cells)",[3],2.6 nM
"BCY12721, Nectin-4:OX40 heterotandem (taken as BCY12708 [Ac-A-(SEQ ID NO: 6)-A-K(Pya)] with a PEG5 derivative of BCY8116) (linker I:2-I:7-I:14, II:1-II:5-II:15 via TATA; not fully specified; also: heterotandem: chain 1 Lys(Pya) linked to PEG5 derivative of chain 2) peptide 1: Ac-ACLYSPCWHPLNDCAK(Pent4ynoyl) peptide 2: CP[1Nal][dD]CM[hArg]DWSTP[Hyp]WC","EC50 (nM), Promega OX40 cell-activity assay in co-culture with Nectin-4 positive 4T1-D02 tumor cells",[1],0.94 nM

# Source: US20200354406A1 (Bicycle, published 2020)
